Assay results published in patent US20250271431A1 (NEW ERA MABS, published 2025).

Molecular target: SARS-CoV-2 Spike protein (D614G, furin-cleavage site destroyed, FKO) on SARS-CoV-2 virus-like particles (VLPs) (SARS-CoV-2, UniProt P0DTC2 14-1273)

B1: hcAb A7.2 (clone A7_2), camelid full length IgG2 heavy chain only antibody (antibody, V domains shown)
VH: DVQLQESGGGLVQPGKSLKLSCAAFGFAFSSTWMHWVRQAPGKGPEWVAFINPGGEKTMHADSVKGRFTISRDDAKNTLYLQMNNLKPEDTAVYYCAIERKDAFSWGQGTQVTVSS
- EC50 (read off the curve): ~400 µg/mL
